Read-outs that look alike come from different tables or passages of the source. Blank lines part the entries; values can stand above or below the binder they belong to.
Columns and labels:
[1] = target: T1, human Siglec-8 (full-length, on transfected CHO or 293 cells, or native on human eosinophils) (human, UniProt Q9NYZ4 17-499); assay: flow cytometry on 293 cells transiently transfected with full-length human Siglec-8; A647 anti-human Fc-gamma secondary; median fluorescence, nonlinear fit; table under the graph (Kd column without unit, concentration axis nM Ab)
T1 sequence (Q9NYZ4 17-499): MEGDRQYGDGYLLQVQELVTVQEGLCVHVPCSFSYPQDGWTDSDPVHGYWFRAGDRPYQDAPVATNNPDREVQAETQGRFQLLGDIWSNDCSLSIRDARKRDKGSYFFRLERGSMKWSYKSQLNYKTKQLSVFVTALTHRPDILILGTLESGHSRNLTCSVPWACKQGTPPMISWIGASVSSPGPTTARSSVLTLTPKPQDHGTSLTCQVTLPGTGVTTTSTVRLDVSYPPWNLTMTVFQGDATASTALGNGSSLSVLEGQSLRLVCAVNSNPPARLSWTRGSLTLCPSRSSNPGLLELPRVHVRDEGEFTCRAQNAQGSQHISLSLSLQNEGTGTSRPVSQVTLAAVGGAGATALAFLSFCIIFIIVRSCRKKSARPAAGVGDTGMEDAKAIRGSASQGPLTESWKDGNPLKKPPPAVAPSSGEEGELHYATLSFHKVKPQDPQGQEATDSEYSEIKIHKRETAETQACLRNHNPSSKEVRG
Protocol: (§1) The binding of the lmG2 and humanized versions (further including Siglec8 hzG2v14), formatted as monomeric VHH-hIgG1 fusions proteins using a non-dimerizing human IgG1 Fe variant region lacking a hinge Fe NNT, was assessed by flow cytometry using 293 cells that had been transiently transfected with full-length human Siglec-8 and detected with an anti-human AF647 secondary antibody. Binding specificity was assessed using untransfected 293 cells as a control. For the binding assays, Siglec-8 293 cells or untransformed 293 cells were seeded in a 96 well U-bottom plate with 50 k cells/well in FACS buffer and incubated at 4° C. with a titration of anti-Siglec8-VHH-NNT for 30 minutes. After washing, the plates were incubated with an A647-conjugated anti-human Fcγ specific secondary antibody diluted 1:10,000 in FACS buffer for 20 minutes at 4° C. The plates were washed, and binding was determined by flow cytometry quantitating anti-human A647 median fluorescent intensity. The maximum specific binding (Bmax) and affinity (Kd) for was determined from the flow cytometry binding data using a nonlinear fit model.

[2] = target: T1, human Siglec-8 (full-length, on …); assay: flow cytometry on 293 cells transiently transfected with full-length human Siglec-8; A647 anti-human Fc-gamma secondary; median fluorescence, nonlinear fit; table under the graph
Protocol: as §1

[3] = target: T1, human Siglec-8 (full-length, on …); assay: flow cytometry on 293 cells transiently transfected with full-length human Siglec-8; A647 anti-human Fc-gamma secondary; median fluorescence, nonlinear fit; table under the graph (Kd column without unit, concentration axis nM Ab); remark: listed apart in the source
Protocol: as §1

[4] = target: T1, human Siglec-8 (full-length, on …); assay: as above; remark: listed apart in the source
Protocol: as §1

[5] = target: T1, human Siglec-8 (full-length, on …); assay: flow cytometry on 293 cells transiently transfected with full-length human Siglec-8; A647 anti-human Fc-gamma secondary; median fluorescence, nonlinear fit; table under the graph; remark: listed apart in the source
Protocol: as §1

[6] = target: T1, human Siglec-8 (full-length, on …); assay: as above; remark: listed apart in the source
Protocol: as §1

[7] = target: T1, human Siglec-8 (full-length, on …); assay: flow cytometry, CHO cells transiently transfected with full-length human Siglec-8 (apparent affinity)
Protocol: (§2) Binding of the anti-human Siglec-8 VHHs, B12, D1, E2, and G2, as a bivalent VHH-hIgG1-xELL-Fc (VHH of SEQ ID NO: 49, 55, 61, and 1, respectively linked to an Fe xELL via linker 2, these constructs are also designated cx8982, cx8983, cx8984, and cx10382, respectively) was determined by flow cytometry using CHO cells that had been transiently transfected with full-length human Siglec-8. Binding specificity was assessed using untransfected (UT) CHO cells as a control. For the binding assays, 50,000 Siglec-8 CHOs or UT CHOs were seeded in a 96-well plate and a titration of anti-Siglec8-VHH-xELL was added in FACS Buffer (PBS 1% BSA, 0.1% NaN3 pH 7.4) incubating for 30 minutes at 4° C. After washing, the plates were incubated with an A647-conjugated anti-human Fcγ specific secondary antibody (Jackson ImmunoResearch) diluted 1:2000 in FACS buffer for 30 minutes at 4° C. The plates were washed, and binding was determined by flow cytometry quantitating anti-human A647 mean fluorescent intensity using an Intellicyt iQue Plus.
(§3) The binding was specific to Siglec-8 as there was no detectable binding to untransfected CHO cells for any of the tested constructs.

[8] = target: T1, human Siglec-8 (full-length, on …); assay: flow cytometry on human eosinophils (CD16- CCR3+) from whole blood; anti-human AF647 secondary; MFI
Excerpt: To determine if increasing the valency of Siglec-8 antibodies could enhance agonist activity, the parental llama B12, D1 and E2 VHH sequences were used to generate tetravalent (Tet-B12 (cx8467; SEQ ID NO:50 linked to an Fe), Tet-D1 (cx8469; SEQ ID NO:56 linked to an Fe), and Tet-E2 (cx8463; SEQ ID NO:62 linked to an Fc)) and hexavalent (Hex-B12 (cx8466; SEQ ID NO:51 linked to an Fe), Hex-D1 (cx8523; SEQ ID NO:57 linked to an Fe), and Hex-E2 (cx8522; SEQ ID NO:165 linked to an Fc)), Siglec8-VHH-Fc antibodies linked to a reduced effector function xELL human Fc region via linker 2. The bivalent (Bi-B12 (cx8982), Bi-D1 (cx8983) and Bi-E2 (cx8984)), tetravalent, and hexavalent Siglec8-VHH-Fc antibodies were assessed by flow cytometry for binding to eosinophils (CD16⁻ CCR3⁺). Cells were isolated from whole blood by centrifugation, washed twice with 2% FBS PBS, and resuspended in 1×RBC lysis buffer for 10 minutes at room temperature (RT), washed once in 2% FBS PBS and treated with a second RBC lysis step and washed twice with 2% FBS. Cells were seeded at 200 k/well and resuspended in Human FC block for 10 minutes at RT. Cells were spun down and then resuspended in titrated test articles starting at 200 nM 1:4 and incubated for 30 minutes at 4° C. before being washed twice and resuspended in secondary mixture (2*; anti-CCR3 FITC, anti-human AF647, PI, anti-CD16 BV605) and incubated for 30 minutes at 4° C., washed twice, and bound antibodies were detected via flow cytometry (Novocyte).
As shown in FIG. 2A-2C, bivalent, tetravalent, and hexavalent Siglec8-VHH-Fc antibodies B12 (FIG. 2A), D1 (FIG. 2B) and E2 (FIG. 2C) bound to eosinophils. The calculated affinity was similar between the bivalent, tetravalent, and hexavalent hzSiglec8-VHH-Fc antibodies. The observed Bmax was reduced with increasing valency as anticipated, due the fact that the Fc portion of the antibody was detected in this assay and the ratio of Fc regions to anti-Siglec-8 binding domains is inverse to valency. No binding was observed on other granulocyte populations (CD16⁺ CCR3⁻).

[9] = target: T1, human Siglec-8 (full-length, on …); assay: flow cytometry on CHO cells transiently transfected with full-length human Siglec-8; A647 anti-human Fc-gamma secondary; Mean RL1-H
Protocol: as §2, §3

[10] = target: T1, human Siglec-8 (full-length, on …); assay: flow cytometry on CHO cells transfected with human Siglec-8; labelled anti-human Fc-gamma secondary; Median RL1-H
Protocol: In additional studies, the parental llama G2 sequence was humanized and multivalent hzSiglec8-G2v14-Fc antibodies were cloned with a reduced effector function xELL human Fe. Binding of bivalent (ex11422; SEQ ID NO: 5 linked to an Fe xELL via linker 2), tetravalent (cx11580; SEQ ID NO: 9 linked to an Fe xELL via linker 2), and hexavalent (cx11579; SEQ ID NO: 10 linked to an Fe xELL via linker 2) hzSiglec8-G2v14-Fc antibodies were assessed by flow cytometry using CHO cells transfected with human Siglec-8. A titration series of the fusion proteins were incubated with the Siglec8-expressing CHO cells (5×10⁴ cells/well) for 30 minutes at 4° C. in FACS Buffer (PBS 1% BSA, 0.1% NaN3 pH 7.4) in 96 well plates. Following one 150 μL wash with FACS buffer, an APC-conjugated anti-human Fcγ specific secondary antibody (Jackson ImmunoResearch) was added, and cells were incubated for 30 minutes at 4° C. Following one additional wash in FACS buffer, bound antibodies were detected via flow cytometry (iQue Intellicyte).
The calculated affinity was similar between the bivalent, tetravalent, and hexavalent hzSiglec8-G2v14-Fc antibodies. The observed Bmax was reduced with increasing valency as anticipated, due the fact that the Fc portion of the antibody was detected in this assay and the ratio of Fc regions to anti-Siglec-8 binding domains is inverse to valency.

[11] = target: T1, human Siglec-8 (full-length, on …); assay: cell-based or functional assay

B2: Siglec8 hzG2v33, monomeric VHH-hIgG1 fusion (Fc NNT) (Fc fusion)
chain: EVQLLESGGGEVQTGGSLRLSCAASGSISIFSMYVVAWYRQAPGKQREWVAFIQRGGTANYAESAKGRFTISRDNAKNTVYLQMSSLRADDTAVYYCNYINSDNEIGGPWGQGTLVTVKP
notes: Monomeric format; not shown: non-dimerizing human IgG1 Fc variant lacking a hinge (Fc NNT)
Kd [1]: 0.0979 nM
Bmax [5]: 1.39e+06 Median (anti-human A647)

B3: Siglec8 hzG2v32, monomeric VHH-hIgG1 fusion (Fc NNT) (Fc fusion)
chain: EVQLLESGGGEVQTGGSLRLSCAASGSISIFSMYVVAWYRQAPGKQREWVAFIQRGGTANYAESAKGRFTISRDNAKNTVYLQMSSLRPEDTAVYYCNYINSDNEIGGPWGQGTLVTVKP
notes: as for B2
Kd [1]: 0.0643 nM
Bmax [5]: 1.45e+06 Median (anti-human A647)

B4: anti-Siglec8-E2-xELL, bivalent VHH-hIgG1-xELL-Fc (Fc fusion)
chain: QVQLVESGGGLVQPGGSLRLSCATSGIIFTSNVINWYRQAPGKQREFVAFITSITSGQSTMYADAVKGRFTVSRDNDKNIGYLQMTSLQPEDTARYVCNVGAYWGQGTQVTVKPGGGGDKTHTCPPCPAPGGPSVFLFPPKPKDTLMISRTPEVTCVVVDVSHEDPEVKFNWYVDGVEVHNAKTKPREEQYNSTYRVVSVLTVLHQDWLNGKEYKCKVSNKALPAPIEKTISKAKGQPREPQVYTLPPSRDELTKNQVSLTCLVKGFYPSDIAVEWESNGQPENNYKTTPPVLDSDGSFFLYSKLTVDKSRWQQGNVFSCSVMHEALHNHYTQKSLSLSPGK
notes: Homodimer through the Fc; also called cx8984; Bi-E2
Kd [7]: 0.331 nM
EC50 (read off the curve) [8]: ~0.1 nM
EC50 (read off the curve) [9]: ~0.4 nM

B5: hexavalent hzSiglec8-G2v14-Fc (xELL) (Fc fusion)
chain: EVQLLESGGGEVQPGGSLRLSCAASGSISIFSMYVVAWYRQAPGKEREWVAFIQRGGTANYAESAKGRFTISRDNAKNTVYLQMSSLRAEDTAVYYCNYINTDNEIGGPWGQGTLVTVKPGGSGGSEVQLLESGGGEVQPGGSLRLSCAASGSISIFSMYVVAWYRQAPGKEREWVAFIQRGGTANYAESAKGRFTISRDNAKNTVYLQMSSLRAEDTAVYYCNYINTDNEIGGPWGQGTLVTVKPGGSGGSEVQLLESGGGEVQPGGSLRLSCAASGSISIFSMYVVAWYRQAPGKEREWVAFIQRGGTANYAESAKGRFTISRDNAKNTVYLQMSSLRAEDTAVYYCNYINTDNEIGGPWGQGTLVTVKPGGGGDKTHTCPPCPAPGGPSVFLFPPKPKDTLMISRTPEVTCVVVDVSHEDPEVKFNWYVDGVEVHNAKTKPREEQYNSTYRVVSVLTVLHQDWLNGKEYKCKVSNKALPAPIEKTISKAKGQPREPQVYTLPPSRDELTKNQVSLTCLVKGFYPSDIAVEWESNGQPENNYKTTPPVLDSDGSFFLYSKLTVDKSRWQQGNVFSCSVMHEALHNHYTQKSLSLSPGK
notes: Homodimer through the Fc; also called cx11579
EC50 (read off the curve) [10]: ~0.02 nM

Continued, in another order:

Kd [1]: 0.0637 nM
Bmax [2]: 1.36e+06 Median (anti-human A647)
Kd [3]: 0.124 nM
Kd [4]: 0.114 nM
Bmax [5]: 1.15e+06 Median (anti-human A647)
Bmax [6]: 1.28e+06 Median (anti-human A647)
B1: llama anti-Siglec8-G2 VHH (lmG2), monomeric VHH-hIgG1 fusion (Fc NNT) (Fc fusion)
chain: QVTLKESGGGLVRTGGSLRLSCAASGSISIFSMYVVAWYRQAPGKQREWVAFIQRGGTANYADSAKGRFTISRDNAKNTVYLQMASLKPDDTAVYYCNYINSDNEIGGPWGQGTQVTVKP
notes: Monomeric format; also called parental clone; not shown: non-dimerizing human IgG1 Fc variant lacking a hinge (Fc NNT)

EC50 (read off the curve) [10]: ~0.04 nM
B6: tetravalent hzSiglec8-G2v14-Fc (xELL) (Fc fusion)
chain: EVQLLESGGGEVQPGGSLRLSCAASGSISIFSMYVVAWYRQAPGKEREWVAFIQRGGTANYAESAKGRFTISRDNAKNTVYLQMSSLRAEDTAVYYCNYINTDNEIGGPWGQGTLVTVKPGGSGGSEVQLLESGGGEVQPGGSLRLSCAASGSISIFSMYVVAWYRQAPGKEREWVAFIQRGGTANYAESAKGRFTISRDNAKNTVYLQMSSLRAEDTAVYYCNYINTDNEIGGPWGQGTLVTVKPGGGGDKTHTCPPCPAPGGPSVFLFPPKPKDTLMISRTPEVTCVVVDVSHEDPEVKFNWYVDGVEVHNAKTKPREEQYNSTYRVVSVLTVLHQDWLNGKEYKCKVSNKALPAPIEKTISKAKGQPREPQVYTLPPSRDELTKNQVSLTCLVKGFYPSDIAVEWESNGQPENNYKTTPPVLDSDGSFFLYSKLTVDKSRWQQGNVFSCSVMHEALHNHYTQKSLSLSPGK
notes: Homodimer through the Fc; also called cx11580
potency of eosinophil killing in the presence of IL-5, fold improvement over the afucosylated AK002 analog [11]: ~30 fold
potency of eosinophil killing in the presence of IL-5, fold increase compared to bivalent hzSiglec8-G2v14-Fc [11]: 10 fold
